What is called IC50 is the concentration that inhibits the measured activity by half.

First the molecules themselves.
B1: Melanostatine-5 / Nonapeptide-1 (SEQ ID NO: 1) (peptide)
peptide: MP[dF]R[dW]FKPV
notes: Printed as Met-Pro-D-Phe-Arg-D-Trp-Phe-Lys-Pro-Val; no terminal modification is printed for the control; also called control; positive control
B2: SEQ ID NO: 32 (peptide)
peptide: IFR[dW]FKPV-NH2
modifications: N-terminus assumed
SMILES: CC[C@H](C)[C@H](N)C(=O)N[C@@H](Cc1ccccc1)C(=O)N[C@@H](CCCNC(=N)N)C(=O)N[C@H](Cc1c[nH]c2ccccc12)C(=O)N[C@@H](Cc1ccccc1)C(=O)N[C@@H](CCCCN)C(=O)N1CCC[C@H]1C(=O)N[C@H](C(N)=O)C(C)C
notes: Printed as Ile-Phe-Arg-dTrp-Phe-Lys-Pro-Val-NH2 (8 residues)
B3: SEQ ID NO: 27 (peptide)
peptide: MVFR[dW]FKPV-NH2
modifications: N-terminus assumed
SMILES: CSCC[C@H](N)C(=O)N[C@H](C(=O)N[C@@H](Cc1ccccc1)C(=O)N[C@@H](CCCNC(=N)N)C(=O)N[C@H](Cc1c[nH]c2ccccc12)C(=O)N[C@@H](Cc1ccccc1)C(=O)N[C@@H](CCCCN)C(=O)N1CCC[C@H]1C(=O)N[C@H](C(N)=O)C(C)C)C(C)C
notes: Printed as Met-Val-Phe-Arg-dTrp-Phe-Lys-Pro-Val-NH2
B4: SEQ ID NO: 11 (peptide)
peptide: AV[dF]R[dW]FKPV-NH2
modifications: N-terminus assumed
SMILES: CC(C)[C@H](NC(=O)[C@@H]1CCCN1C(=O)[C@H](CCCCN)NC(=O)[C@H](Cc1ccccc1)NC(=O)[C@@H](Cc1c[nH]c2ccccc12)NC(=O)[C@H](CCCNC(=N)N)NC(=O)[C@@H](Cc1ccccc1)NC(=O)[C@@H](NC(=O)[C@H](C)N)C(C)C)C(N)=O
notes: Printed as Ala-Val-dPhe-Arg-dTrp-Phe-Lys-Pro-Val-NH2
B5: SEQ ID NO: 16 (peptide)
peptide: FV[dF]R[dW]FKPV-NH2
modifications: N-terminus assumed
SMILES: CC(C)[C@H](NC(=O)[C@@H]1CCCN1C(=O)[C@H](CCCCN)NC(=O)[C@H](Cc1ccccc1)NC(=O)[C@@H](Cc1c[nH]c2ccccc12)NC(=O)[C@H](CCCNC(=N)N)NC(=O)[C@@H](Cc1ccccc1)NC(=O)[C@@H](NC(=O)[C@@H](N)Cc1ccccc1)C(C)C)C(N)=O
notes: Printed as Phe-Val-dPhe-Arg-dTrp-Phe-Lys-Pro-Val-NH2
B6: SEQ ID NO: 25 (peptide)
peptide: EV[dF]R[dW]FKPV-NH2
modifications: N-terminus assumed
SMILES: CC(C)[C@H](NC(=O)[C@@H]1CCCN1C(=O)[C@H](CCCCN)NC(=O)[C@H](Cc1ccccc1)NC(=O)[C@@H](Cc1c[nH]c2ccccc12)NC(=O)[C@H](CCCNC(=N)N)NC(=O)[C@@H](Cc1ccccc1)NC(=O)[C@@H](NC(=O)[C@@H](N)CCC(=O)O)C(C)C)C(N)=O
notes: Printed as Glu-Val-dPhe-Arg-dTrp-Phe-Lys-Pro-Val-NH2

Square brackets hold non-standard residues; d marks the D form. Ends that are not written are not given here.

For the first test, the target named is T1, Human recombinant melanocortin MC1 receptor (human, UniProt Q01726 1-317).
T1 construct: whole, on cells; Eurofins Discovery assay Item 251100; a 3 ug aliquot of receptors from CHO-K1 cells was incubated, filtered and washed (probably a membrane preparation); also called Melanocortin 1 Receptor; MCIR
T1 sequence (Q01726 whole entry): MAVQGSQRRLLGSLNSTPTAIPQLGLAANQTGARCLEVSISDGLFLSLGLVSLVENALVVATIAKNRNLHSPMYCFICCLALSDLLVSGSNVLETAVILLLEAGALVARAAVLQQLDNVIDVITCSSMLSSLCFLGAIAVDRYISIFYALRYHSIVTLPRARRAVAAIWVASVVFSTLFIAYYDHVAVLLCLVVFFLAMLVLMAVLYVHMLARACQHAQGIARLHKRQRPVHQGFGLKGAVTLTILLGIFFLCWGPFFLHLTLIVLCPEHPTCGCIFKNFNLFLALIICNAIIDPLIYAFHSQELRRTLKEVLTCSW
Nature of the test: radioligand competition, displacement of [125I]NDP-alpha-MSH from human MC1R (CHO-K1), Example 1. As to the method:
(§1) The binding of Group A MCIR peptide antagonists of the disclosure was evaluated in a competition assay (MC1 Human Melanocortin GPCR Binding (Agonist Radioligand) Assay, Item 251100, Eurofins Discovery). Peptides were synthesized by AnaSpec (Fremont, CA). Human recombinant melanocortin MCI receptors were expressed in CHO-K1 cells in modified HEPES-KOH buffer pH 7.0. A 3 μgs aliquot was incubated with 0.04 nM [¹²⁵I]NDP-α-MSH for 120 minutes at 37° C. Non-specific binding was estimated in the presence of 1 μM NDP-α-MSH. Receptors were filtered and washed, and the filters counted to determine [¹²⁵I] NDP-α-MSH specifically bound. Peptide antagonists of the disclosure having amino acid sequences as set forth in SEQ ID NOS: 11, 16, 25, 27, 32, 35, and 40 (each having a C-terminal —NH2) were screened at five concentrations, as well as a positive control, SEQ ID NO: 1 (Melanostatine-5). Inhibition curves were obtained by determining the reduction of bound α-MSH in the presence of an amount of, and/or by increasing amounts of, each peptide antagonist. Non-specific binding of peptide was estimated separately in the presence of a vast excess (1 mM) of unlabeled α-MSH, which occupies all the available receptor binding sites.
Based on the competitive binding curve, the IC₅₀ values were determined (Eurofins or AAT Bioquest IC₅₀ calculator). […]
Background: Loss of bound radioactivity is the signal in a displacement assay; it reports binding, not function.
Regarding B1, the half-maximal inhibitory concentration (IC50) amounted to 120 nM.

Another test deals with T1, Human recombinant melanocortin MC1 …. Kind of test: radioligand competition, displacement of [125I]NDP-alpha-MSH from human MC1R (CHO-K1), Example 7. As to the method:
as §1, with “[¹²⁵I]NDP-α-MSH” for “[¹²⁵I] NDP-α-MSH”, “40” for “40 (each having a C-terminal —NH2)”, “concentrations.” for “concentrations, as well as a positive control, SEQ ID NO: 1 (Melanostatine-5).”, “antagonist.” for “antagonist. Non-specific binding of peptide was estimated separately in the presence of a vast excess (1 mM) of unlabeled α-MSH, which occupies all the available receptor binding sites.”
For B2, the IC50 is below 200 nM. Take B3: the half-maximal inhibitory concentration (IC50) was above 500 nM. B1: the half-maximal inhibitory concentration (IC50) was below 200 nM. As to B4, the 50% inhibitory concentration (IC50) was in the range of 200 to 500 nM. The same measure, in the same setting: the same measure for B5: below 200 nM.

As for B6, the IC50 is above 500 nM.
